Measured values reported in patent publication US20200199241A1 (Chugai, published 2020).
Numbering of substitutions follows the chain as printed. Names and notes keep the numbering of the source.

T1: human FcγRIIa(R) (human, UniProt P12318 36-217)
T1 construct: also called FcgRIIaR; FcγRIIa type R
T1 chain: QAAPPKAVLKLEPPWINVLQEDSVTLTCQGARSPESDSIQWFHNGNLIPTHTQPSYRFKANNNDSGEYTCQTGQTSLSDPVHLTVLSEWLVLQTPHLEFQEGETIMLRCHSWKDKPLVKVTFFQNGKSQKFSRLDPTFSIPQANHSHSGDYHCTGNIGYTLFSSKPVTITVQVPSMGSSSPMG

T2: human FcγRIIa(H) (human, UniProt P12318 36-217)
T2 construct: also called FcgRIIaH; FcγRIIa type H
T2 sequence: T1 chain with R133H

T3: human FcγRIIb (human, UniProt P31994 43-217, limits assumed)
T3 construct: also called FcgRIIb
T3 sequence: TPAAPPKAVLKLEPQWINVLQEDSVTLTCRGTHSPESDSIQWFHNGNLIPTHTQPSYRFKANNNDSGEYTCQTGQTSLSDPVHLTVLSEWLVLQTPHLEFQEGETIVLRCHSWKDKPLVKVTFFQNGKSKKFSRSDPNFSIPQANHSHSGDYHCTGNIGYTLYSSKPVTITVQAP

B1: GpH7-B3 variant L234H/GpL16-k0 (antibody, human IgG1)
heavy: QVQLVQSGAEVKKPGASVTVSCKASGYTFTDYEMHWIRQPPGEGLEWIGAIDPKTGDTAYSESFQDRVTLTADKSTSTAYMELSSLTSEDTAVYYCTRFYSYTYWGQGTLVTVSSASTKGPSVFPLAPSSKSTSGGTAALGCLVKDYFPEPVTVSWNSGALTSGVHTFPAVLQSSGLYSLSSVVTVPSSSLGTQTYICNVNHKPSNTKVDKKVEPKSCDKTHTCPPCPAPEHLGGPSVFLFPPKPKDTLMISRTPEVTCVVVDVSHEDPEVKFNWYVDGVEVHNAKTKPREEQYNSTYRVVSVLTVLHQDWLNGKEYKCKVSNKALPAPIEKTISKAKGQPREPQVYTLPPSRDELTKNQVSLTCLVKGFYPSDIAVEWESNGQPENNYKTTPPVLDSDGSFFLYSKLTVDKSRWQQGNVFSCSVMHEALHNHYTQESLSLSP
light: DIVMTQSPLSLPVTPGEPASISCQASESLVHSNRNTYLHWYLQKPGQSPQLLIYKVSNRFSGVPDRFSGSGSGTDFTLKISRVEAEDVGVYYCSQNTHVPPTFGQGTKVEIE
notes: copies: 2 + 2
B2: GpH7-B3 variant L235T/GpL16-k0 (antibody, human IgG1)
heavy: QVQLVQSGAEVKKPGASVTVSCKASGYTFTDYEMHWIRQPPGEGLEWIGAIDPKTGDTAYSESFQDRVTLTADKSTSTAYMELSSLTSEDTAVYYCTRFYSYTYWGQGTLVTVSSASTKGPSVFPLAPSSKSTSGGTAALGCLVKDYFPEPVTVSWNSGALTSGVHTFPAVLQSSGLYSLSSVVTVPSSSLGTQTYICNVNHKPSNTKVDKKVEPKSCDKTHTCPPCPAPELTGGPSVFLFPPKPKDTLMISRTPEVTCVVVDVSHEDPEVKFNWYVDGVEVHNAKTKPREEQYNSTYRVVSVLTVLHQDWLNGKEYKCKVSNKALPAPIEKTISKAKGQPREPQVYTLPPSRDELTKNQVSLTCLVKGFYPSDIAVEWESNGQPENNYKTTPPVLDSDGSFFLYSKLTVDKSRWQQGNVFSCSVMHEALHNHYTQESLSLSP
light: B1 light
notes: copies: 2 + 2
B3: GpH7-B3 variant L235I/GpL16-k0 (antibody, human IgG1)
heavy: not shown
light: B1 light
notes: copies: 2 + 2
B4: GpH7-B3 variant L235N/GpL16-k0 (antibody, human IgG1)
heavy: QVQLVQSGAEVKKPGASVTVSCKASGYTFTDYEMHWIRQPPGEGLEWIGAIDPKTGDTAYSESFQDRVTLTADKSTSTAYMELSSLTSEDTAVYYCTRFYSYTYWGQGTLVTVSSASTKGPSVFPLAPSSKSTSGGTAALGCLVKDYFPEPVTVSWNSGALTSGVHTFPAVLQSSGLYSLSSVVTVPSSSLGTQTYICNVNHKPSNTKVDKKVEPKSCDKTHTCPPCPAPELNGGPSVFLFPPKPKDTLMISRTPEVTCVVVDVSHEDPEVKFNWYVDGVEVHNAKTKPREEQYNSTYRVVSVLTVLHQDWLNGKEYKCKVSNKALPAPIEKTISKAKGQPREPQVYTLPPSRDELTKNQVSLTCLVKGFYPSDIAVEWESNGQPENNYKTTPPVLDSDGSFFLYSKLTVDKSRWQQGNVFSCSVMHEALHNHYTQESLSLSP
light: B1 light
notes: copies: 2 + 2
B5: GpH7-B3 variant L235V/GpL16-k0 (antibody, human IgG1)
heavy: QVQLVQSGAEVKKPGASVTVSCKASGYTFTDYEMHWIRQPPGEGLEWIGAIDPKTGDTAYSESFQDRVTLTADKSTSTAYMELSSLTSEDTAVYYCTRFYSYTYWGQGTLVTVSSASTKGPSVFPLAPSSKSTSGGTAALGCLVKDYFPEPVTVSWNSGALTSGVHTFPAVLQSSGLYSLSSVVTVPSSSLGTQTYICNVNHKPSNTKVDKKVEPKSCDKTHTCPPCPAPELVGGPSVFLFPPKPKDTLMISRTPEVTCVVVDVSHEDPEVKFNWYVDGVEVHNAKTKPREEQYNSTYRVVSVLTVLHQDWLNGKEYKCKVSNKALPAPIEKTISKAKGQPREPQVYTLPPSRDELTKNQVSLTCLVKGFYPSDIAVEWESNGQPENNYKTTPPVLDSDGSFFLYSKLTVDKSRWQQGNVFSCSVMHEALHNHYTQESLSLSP
light: B1 light
notes: copies: 2 + 2
B6: GpH7-B3 variant P238H/GpL16-k0 (antibody, human IgG1)
heavy: not shown
light: B1 light
notes: copies: 2 + 2
B7: GpH7-B3 variant L235Q/GpL16-k0 (antibody, human IgG1)
heavy: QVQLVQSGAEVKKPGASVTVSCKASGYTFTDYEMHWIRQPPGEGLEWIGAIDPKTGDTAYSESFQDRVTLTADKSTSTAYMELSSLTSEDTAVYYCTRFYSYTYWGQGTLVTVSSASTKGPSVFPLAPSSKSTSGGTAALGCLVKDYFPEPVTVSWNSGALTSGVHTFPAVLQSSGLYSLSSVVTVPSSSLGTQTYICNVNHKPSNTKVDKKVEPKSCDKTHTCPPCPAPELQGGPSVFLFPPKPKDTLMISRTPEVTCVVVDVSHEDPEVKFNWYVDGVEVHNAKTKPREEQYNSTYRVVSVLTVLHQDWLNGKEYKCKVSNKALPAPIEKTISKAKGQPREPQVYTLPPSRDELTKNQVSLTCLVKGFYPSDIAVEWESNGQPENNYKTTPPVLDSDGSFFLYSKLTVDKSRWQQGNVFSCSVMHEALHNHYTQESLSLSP
light: B1 light
notes: copies: 2 + 2
B8: GpH7-B3 variant L235E/GpL16-k0 (antibody, human IgG1)
heavy: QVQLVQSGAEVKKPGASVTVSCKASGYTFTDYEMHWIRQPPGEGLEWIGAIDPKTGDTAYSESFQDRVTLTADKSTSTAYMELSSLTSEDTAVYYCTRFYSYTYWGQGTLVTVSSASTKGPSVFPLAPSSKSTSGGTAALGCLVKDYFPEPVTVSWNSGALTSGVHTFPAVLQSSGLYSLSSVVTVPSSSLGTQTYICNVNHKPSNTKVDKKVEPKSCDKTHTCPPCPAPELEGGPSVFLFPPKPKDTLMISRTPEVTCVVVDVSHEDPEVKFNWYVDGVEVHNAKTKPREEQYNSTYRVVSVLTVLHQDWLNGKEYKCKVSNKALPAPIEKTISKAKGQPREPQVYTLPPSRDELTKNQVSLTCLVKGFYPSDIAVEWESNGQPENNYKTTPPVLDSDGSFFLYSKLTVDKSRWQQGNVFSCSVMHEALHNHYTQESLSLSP
light: B1 light
notes: copies: 2 + 2
B9: GpH7-B3 variant L234K/GpL16-k0 (antibody, human IgG1)
heavy: not shown
light: B1 light
notes: copies: 2 + 2
B10: GpH7-B3 variant L235G/GpL16-k0 (antibody, human IgG1)
heavy: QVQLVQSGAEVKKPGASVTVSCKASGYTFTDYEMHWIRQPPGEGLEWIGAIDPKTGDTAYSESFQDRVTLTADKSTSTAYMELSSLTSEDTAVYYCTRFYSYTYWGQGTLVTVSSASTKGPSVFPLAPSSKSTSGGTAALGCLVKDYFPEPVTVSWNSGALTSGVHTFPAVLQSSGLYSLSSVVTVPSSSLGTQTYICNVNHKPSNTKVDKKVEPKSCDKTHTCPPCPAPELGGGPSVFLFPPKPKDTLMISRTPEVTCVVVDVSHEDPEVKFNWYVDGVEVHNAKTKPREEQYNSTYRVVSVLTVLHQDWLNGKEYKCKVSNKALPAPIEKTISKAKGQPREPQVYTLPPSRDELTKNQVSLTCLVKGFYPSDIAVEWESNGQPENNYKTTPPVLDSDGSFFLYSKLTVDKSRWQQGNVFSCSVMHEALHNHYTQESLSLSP
light: B1 light
notes: copies: 2 + 2
B11: GpH7-B3 variant L234M/GpL16-k0 (antibody, human IgG1)
heavy: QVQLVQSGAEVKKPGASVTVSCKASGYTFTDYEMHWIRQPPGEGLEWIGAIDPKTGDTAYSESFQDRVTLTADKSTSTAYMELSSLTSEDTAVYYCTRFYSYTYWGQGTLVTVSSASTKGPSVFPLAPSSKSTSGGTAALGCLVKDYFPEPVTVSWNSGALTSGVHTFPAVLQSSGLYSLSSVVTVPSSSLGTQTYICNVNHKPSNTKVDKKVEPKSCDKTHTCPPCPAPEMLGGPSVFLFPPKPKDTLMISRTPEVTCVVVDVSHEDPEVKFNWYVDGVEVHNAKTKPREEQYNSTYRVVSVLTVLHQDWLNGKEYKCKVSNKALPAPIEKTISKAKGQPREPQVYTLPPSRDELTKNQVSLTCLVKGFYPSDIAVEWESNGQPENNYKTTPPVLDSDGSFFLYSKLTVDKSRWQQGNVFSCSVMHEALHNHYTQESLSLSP
light: B1 light
notes: copies: 2 + 2
B12: GpH7-B3 variant P238I/GpL16-k0 (antibody, human IgG1)
heavy: not shown
light: B1 light
notes: copies: 2 + 2
B13: GpH7-B3 variant L234S/GpL16-k0 (antibody, human IgG1)
heavy: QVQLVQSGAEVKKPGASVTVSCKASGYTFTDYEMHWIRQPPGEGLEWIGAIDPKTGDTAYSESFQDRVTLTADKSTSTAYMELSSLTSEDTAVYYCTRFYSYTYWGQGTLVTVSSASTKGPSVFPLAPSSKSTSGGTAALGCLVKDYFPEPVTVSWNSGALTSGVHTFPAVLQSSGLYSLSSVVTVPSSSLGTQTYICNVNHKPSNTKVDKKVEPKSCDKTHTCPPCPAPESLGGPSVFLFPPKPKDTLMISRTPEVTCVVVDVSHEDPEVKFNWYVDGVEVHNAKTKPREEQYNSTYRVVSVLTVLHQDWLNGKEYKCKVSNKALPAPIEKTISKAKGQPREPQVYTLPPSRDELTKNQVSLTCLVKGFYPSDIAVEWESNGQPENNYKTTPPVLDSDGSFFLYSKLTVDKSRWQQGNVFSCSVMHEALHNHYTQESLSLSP
light: B1 light
notes: copies: 2 + 2
B14: GpH7-B3 variant L234T/GpL16-k0 (antibody, human IgG1)
heavy: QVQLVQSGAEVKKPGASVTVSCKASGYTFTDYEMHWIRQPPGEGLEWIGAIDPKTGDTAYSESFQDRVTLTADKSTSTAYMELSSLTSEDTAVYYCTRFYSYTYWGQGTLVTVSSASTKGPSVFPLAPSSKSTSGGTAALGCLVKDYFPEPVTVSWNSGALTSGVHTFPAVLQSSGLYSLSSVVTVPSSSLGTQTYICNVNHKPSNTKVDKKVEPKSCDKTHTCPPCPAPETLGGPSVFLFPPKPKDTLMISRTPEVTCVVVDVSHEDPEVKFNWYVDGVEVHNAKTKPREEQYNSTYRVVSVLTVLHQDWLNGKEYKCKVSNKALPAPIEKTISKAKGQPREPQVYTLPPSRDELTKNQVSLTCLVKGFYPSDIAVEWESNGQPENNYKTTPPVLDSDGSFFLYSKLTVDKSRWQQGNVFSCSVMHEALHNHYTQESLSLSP
light: B1 light
notes: copies: 2 + 2

Target: T1, human FcγRIIa(R)
Assay: SPR (Biacore);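 also: antibody variants captured on sensor chip, Fcγ receptor flowed over at 25 °C, bound receptor normalized to amount of captured antibody, expressed relative to reference antibody set as 100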

relative binding activity | Binder
21 % of GpH7-B3/GpL16-k0 | B1
28 % of GpH7-B3/GpL16-k0 | B2
81 % of GpH7-B3/GpL16-k0 | B3
35 % of GpH7-B3/GpL16-k0 | B4
50 % of GpH7-B3/GpL16-k0 | B5
25 % of GpH7-B3/GpL16-k0 | B6
28 % of GpH7-B3/GpL16-k0 | B7
72 % of GpH7-B3/GpL16-k0 | B8
-2 % of GpH7-B3/GpL16-k0 | B9
6 % of GpH7-B3/GpL16-k0 | B10
65 % of GpH7-B3/GpL16-k0 | B11
43 % of GpH7-B3/GpL16-k0 | B12
20 % of GpH7-B3/GpL16-k0 | B13
33 % of GpH7-B3/GpL16-k0 | B14

target: T4, human FcγRIa (human, UniProt P12314 16-292, limits assumed); assay: SPR (Biacore);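 also: antibody variants captured on sensor chip, Fcγ receptor flowed over at 25 °C, bound receptor normalized to amount of captured antibody, expressed relative to reference antibody set as 100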
T4 construct: also called FcgRIa; FcγRI (CD64)
T4 sequence (P12314 16-292 limits assumed): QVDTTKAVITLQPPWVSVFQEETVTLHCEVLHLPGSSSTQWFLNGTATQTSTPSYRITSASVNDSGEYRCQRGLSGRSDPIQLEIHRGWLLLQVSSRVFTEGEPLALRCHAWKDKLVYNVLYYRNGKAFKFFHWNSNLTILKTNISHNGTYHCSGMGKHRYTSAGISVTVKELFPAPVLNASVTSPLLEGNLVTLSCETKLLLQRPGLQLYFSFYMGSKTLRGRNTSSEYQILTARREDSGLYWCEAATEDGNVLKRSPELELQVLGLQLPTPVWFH

relative binding activity | Binder
65 % of GpH7-B3/GpL16-k0 | B1
8 % of GpH7-B3/GpL16-k0 | B2
93 % of GpH7-B3/GpL16-k0 | B3
3 % of GpH7-B3/GpL16-k0 | B4
69 % of GpH7-B3/GpL16-k0 | B5
80 % of GpH7-B3/GpL16-k0 | B6
29 % of GpH7-B3/GpL16-k0 | B7
15 % of GpH7-B3/GpL16-k0 | B8
54 % of GpH7-B3/GpL16-k0 | B9
16 % of GpH7-B3/GpL16-k0 | B10
100 % of GpH7-B3/GpL16-k0 | B11
99 % of GpH7-B3/GpL16-k0 | B12
63 % of GpH7-B3/GpL16-k0 | B13
93 % of GpH7-B3/GpL16-k0 | B14

target: T5, human FcγRIIIa(F) (human, UniProt P08637 17-208, limits assumed); assay: SPR (Biacore);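 also: antibody variants captured on sensor chip, Fcγ receptor flowed over at 25 °C, bound receptor normalized to amount of captured antibody, expressed relative to reference antibody set as 100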
T5 construct: also called FcgRIIIaF; allotype F158
T5 sequence (P08637 other isoform, or with tags, fused parts or gaps limits assumed): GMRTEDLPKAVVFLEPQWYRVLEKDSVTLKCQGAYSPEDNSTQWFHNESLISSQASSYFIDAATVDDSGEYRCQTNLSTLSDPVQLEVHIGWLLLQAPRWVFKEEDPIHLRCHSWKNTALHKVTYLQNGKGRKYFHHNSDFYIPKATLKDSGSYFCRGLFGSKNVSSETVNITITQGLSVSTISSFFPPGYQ

relative binding activity | Binder
32 % of GpH7-B3/GpL16-k0 | B1
48 % of GpH7-B3/GpL16-k0 | B2
85 % of GpH7-B3/GpL16-k0 | B3
35 % of GpH7-B3/GpL16-k0 | B4
77 % of GpH7-B3/GpL16-k0 | B5
-1 % of GpH7-B3/GpL16-k0 | B6
35 % of GpH7-B3/GpL16-k0 | B7
56 % of GpH7-B3/GpL16-k0 | B8
1 % of GpH7-B3/GpL16-k0 | B9
13 % of GpH7-B3/GpL16-k0 | B10
50 % of GpH7-B3/GpL16-k0 | B11
3 % of GpH7-B3/GpL16-k0 | B12
22 % of GpH7-B3/GpL16-k0 | B13
30 % of GpH7-B3/GpL16-k0 | B14

target: T2, human FcγRIIa(H); assay: SPR (Biacore);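 also: antibody variants captured on sensor chip, Fcγ receptor flowed over at 25 °C, bound receptor normalized to amount of captured antibody, expressed relative to reference antibody set as 100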

relative binding activity | Binder
29 % of GpH7-B3/GpL16-k0 | B1
47 % of GpH7-B3/GpL16-k0 | B2
89 % of GpH7-B3/GpL16-k0 | B3
37 % of GpH7-B3/GpL16-k0 | B4
68 % of GpH7-B3/GpL16-k0 | B5
3 % of GpH7-B3/GpL16-k0 | B6
34 % of GpH7-B3/GpL16-k0 | B7
52 % of GpH7-B3/GpL16-k0 | B8
1 % of GpH7-B3/GpL16-k0 | B9
7 % of GpH7-B3/GpL16-k0 | B10
57 % of GpH7-B3/GpL16-k0 | B11
19 % of GpH7-B3/GpL16-k0 | B12
21 % of GpH7-B3/GpL16-k0 | B13
30 % of GpH7-B3/GpL16-k0 | B14

target: T3, human FcγRIIb; assay: SPR (Biacore)

relative binding activity | Binder
24 % of GpH7-B3/GpL16-k0 | B1
26 % of GpH7-B3/GpL16-k0 | B2
88 % of GpH7-B3/GpL16-k0 | B3
27 % of GpH7-B3/GpL16-k0 | B4
47 % of GpH7-B3/GpL16-k0 | B5
19 % of GpH7-B3/GpL16-k0 | B6
20 % of GpH7-B3/GpL16-k0 | B7
64 % of GpH7-B3/GpL16-k0 | B8
-3 % of GpH7-B3/GpL16-k0 | B9
3 % of GpH7-B3/GpL16-k0 | B10
53 % of GpH7-B3/GpL16-k0 | B11
31 % of GpH7-B3/GpL16-k0 | B12
19 % of GpH7-B3/GpL16-k0 | B13
27 % of GpH7-B3/GpL16-k0 | B14
